Data on one molecule can be found in PMC8906542.

Holding throughout (test): fluorescence polarization
For series [1], the target named is T1, ErmE K164S (Saccharopolyspora erythraea, UniProt P07287 1-381, K164S).
T1 sequence: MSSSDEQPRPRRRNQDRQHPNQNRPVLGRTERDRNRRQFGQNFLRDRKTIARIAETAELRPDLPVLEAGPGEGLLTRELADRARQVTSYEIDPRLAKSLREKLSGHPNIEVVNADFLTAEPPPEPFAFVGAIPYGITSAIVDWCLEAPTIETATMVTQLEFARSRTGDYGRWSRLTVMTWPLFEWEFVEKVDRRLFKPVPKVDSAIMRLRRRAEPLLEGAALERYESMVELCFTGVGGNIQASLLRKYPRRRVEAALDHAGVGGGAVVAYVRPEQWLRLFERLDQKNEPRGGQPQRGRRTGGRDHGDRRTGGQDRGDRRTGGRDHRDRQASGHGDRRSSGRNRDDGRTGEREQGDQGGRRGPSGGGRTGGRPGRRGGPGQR

Series [2] addresses T2, ErmE K164M (Saccharopolyspora erythraea, UniProt P07287 1-381, K164M).
T2 sequence: T1 sequence with S164M

The target in series [3] is T3, ErmE R163E (Saccharopolyspora erythraea, UniProt P07287 1-381, R163E).
T3 sequence: T1 sequence with R163E, S164K

Series [4] addresses T4, ErmE R165A (Saccharopolyspora erythraea, UniProt P07287 1-381, R165A).
T4 sequence: T1 sequence with S164K, R165A

The target of series [5] is T5, ErmE E160W (Saccharopolyspora erythraea, UniProt P07287 1-381, E160W).
T5 sequence: T1 sequence with E160W, S164K

In series [6] the target is T6, ErmE E160A (Saccharopolyspora erythraea, UniProt P07287 1-381, E160A).
T6 sequence: T1 sequence with E160A, S164K

Positions count from the first letter of the chain named.

For GGCCUGCGGCAAGACGGAAAGACCAUGGUCCCUAUCUGCCGCAGGAUC (structured_RNA) [V48 Erm substrate (23S rRNA helix 73 mimic, 48 nt)], the binding result in series [1], in series [2] and in series [6] was “binds” each time. Further, the Kd in series [3] is 3700 nM; in series [4] it was 490 ± 50 nM. Besides, the binding signal in series [5] was around 4 fold Kd increase vs wt.
